The experiment concerns the target T1, IL-18Rβ extracellular domain (his6-tagged, produced in Cos cells) (UniProt O95256 20-356, limits assumed).
T1 construct: extracellular domain; also called IL-18Rβ-ECD; signalling chain of IL-18R
T1 sequence (looked up): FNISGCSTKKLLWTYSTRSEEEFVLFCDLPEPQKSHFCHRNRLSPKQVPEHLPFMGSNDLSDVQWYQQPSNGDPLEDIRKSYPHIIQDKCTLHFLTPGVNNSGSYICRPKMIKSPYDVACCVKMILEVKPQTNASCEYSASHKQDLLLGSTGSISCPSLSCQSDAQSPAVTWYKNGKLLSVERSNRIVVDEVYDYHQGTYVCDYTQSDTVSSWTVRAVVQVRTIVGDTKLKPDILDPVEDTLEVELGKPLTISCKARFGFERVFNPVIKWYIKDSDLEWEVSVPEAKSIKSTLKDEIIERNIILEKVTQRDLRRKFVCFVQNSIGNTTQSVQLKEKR
The experiment in a line: chemical cross-linking of the two extracellular domains without ligand, SDS-PAGE, Western blot with anti-his6 mAb against his6-tagged IL-18Rβ. For orientation: Immunoblotting shows a protein as a band on a membrane.

B1: IL-18Rα extracellular domain (produced in Cos cells) (receptor, UniProt Q13478 22-329, looked up)
chain: CTSRPHITVVEGEPFYLKHCSCSLAHEIETTTKSWYKSSGSQEHVELNPRSSSRIALHDCVLEFWPVELNDTGSYFFQMKNYTQKWKLNVIRRNKHSCFTERQVTSKIVEVKKFFQITCENSYYQTLVNSTSLYKNCKKLLLENNKNPTIKKNAEFEDQGYYSCVHFLHHNGKLFNITKTFNITIVEDRSNIVPVLLGPKLNHVAVELGKNVRLNCSALLNEEDVIYWMFGEENGSDPNIHEEKEMRIMTPEGKWHASKVLRIENIGESNLNVLYNCTVASTGGTDTKSFILVRKADMADIPGHVFTR
notes: extracellular domain; It is glycosylated (Cos cell product); also called IL-18Rα-ECD
In the case of B1, the binding result is “no binding”.

(Values after US20040120923A1 (ARES TRADING S A, published 2004).)
